Assay results reported in paper PMC12325586, “OFD1 inhibition induces BRCAness to create a therapeutic vulnerability to PARP inhibition in pancreatic cancer” (Nature Communications, 2025).

T1: OFD1-Flag recombinant protein (UniProt O75665 1-1012)
T1 construct: OFD1; also called recombinant OFD1; source: HEK293S, purified (Flag agarose, eluted with Flag peptide)
T1 sequence (looked up): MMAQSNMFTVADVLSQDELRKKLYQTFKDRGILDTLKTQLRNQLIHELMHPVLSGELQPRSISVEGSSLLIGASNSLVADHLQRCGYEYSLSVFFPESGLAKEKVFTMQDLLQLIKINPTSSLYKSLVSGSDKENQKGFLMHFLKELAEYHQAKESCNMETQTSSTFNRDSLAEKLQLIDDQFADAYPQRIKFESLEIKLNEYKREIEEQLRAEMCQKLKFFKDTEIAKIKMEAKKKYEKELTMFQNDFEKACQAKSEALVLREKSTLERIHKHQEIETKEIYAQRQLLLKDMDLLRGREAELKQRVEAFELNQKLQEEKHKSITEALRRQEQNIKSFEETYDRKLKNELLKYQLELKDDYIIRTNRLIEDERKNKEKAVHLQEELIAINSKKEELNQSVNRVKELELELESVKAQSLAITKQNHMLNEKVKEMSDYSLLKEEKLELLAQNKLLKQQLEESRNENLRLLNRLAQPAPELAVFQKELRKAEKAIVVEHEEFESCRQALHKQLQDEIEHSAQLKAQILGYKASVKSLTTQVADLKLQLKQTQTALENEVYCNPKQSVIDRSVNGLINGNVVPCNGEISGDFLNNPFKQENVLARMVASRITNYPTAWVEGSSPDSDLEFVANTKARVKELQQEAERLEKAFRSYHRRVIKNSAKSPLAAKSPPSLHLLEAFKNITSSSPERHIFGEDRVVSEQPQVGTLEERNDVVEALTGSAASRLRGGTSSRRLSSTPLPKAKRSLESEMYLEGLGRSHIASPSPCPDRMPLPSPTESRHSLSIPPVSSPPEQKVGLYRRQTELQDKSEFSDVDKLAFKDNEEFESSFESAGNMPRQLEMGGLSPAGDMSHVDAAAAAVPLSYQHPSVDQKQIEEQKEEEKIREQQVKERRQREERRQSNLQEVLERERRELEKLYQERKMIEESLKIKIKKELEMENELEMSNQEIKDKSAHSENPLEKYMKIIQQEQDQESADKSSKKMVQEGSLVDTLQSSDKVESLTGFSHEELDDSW

B1: E2F4-Strep II-HA recombinant protein (natural protein)
chain: not shown
notes: E2F4; also called recombinant E2F4; source: HEK293S, purified (StrepTactin XT beads, then HA agarose, eluted with HA peptide)
B2: E2F4 peptide spanning residues 283-302 (peptide)
peptide: ELSSLPLGPTTLDTRPLQSS
notes: the TAT-conjugated form was used on cells only; source: synthetic peptide

How the values were obtained:
[1] = molecular target: T1, OFD1-Flag recombinant protein; assay: pull-down; 20 μg purified OFD1-Flag and E2F4-Strep II-HA with Flag agarose or HA agarose in TAP lysis buffer, 3-4 h at 4 °C; conditions: both partners purified
[2] = molecular target: T1, OFD1-Flag recombinant protein; assay: pull-down; in vitro peptide competition: 5 μg purified OFD1-Flag and E2F4-Strep II-HA with HA agarose; candidate peptides at 200 μM, validation at 0, 12.5, 25, 50, 100 and 200 μM; overnight at 4 °C; conditions: both partners purified

Binder	binding result [1]	binding result [2]
B1	binds	
B2		binds
